From patent US20240376151A1, “STAPLED PEPTIDES AND METHODS THEREOF” (FOG PHARMACEUTICALS, INC., priority 2022, published 2024)
Numbered stars: 1 amine (or outer) side, 2 acyl side, 3 side chain; on linkers, the order of the positions; unused ones are H or OH. Bridge positions count the residues as written; N and C are the ends. Ends that are not written are not given here. Phenylene(1,4-NHCOCH2)2 = O=C(C[*:1])Nc1ccc(NC(=O)C[*:2])cc1

Experiments:
[1] = target: T1, WWP1 (Homo sapiens, UniProt Q9H0M0); experiment: Naive Library Presenter Screening (phage, NGS), WWP1 (construct not given); assay type: binding; details: for interaction data at Target Concentration 10: WWP1 target concentration 10 nM; for interaction data at Target Concentration 30: WWP1 target concentration 30 nM; for interaction data at Target Concentration 100: WWP1 target concentration 100 nM; for interaction data at Target Concentration 300: WWP1 target concentration 300 nM; for interaction data at Target Concentration 1000: WWP1 target concentration 1000 nM
T1 construct: GST-TEV (N, cleaved yes); made in house; host or cells: Escherichia coli BL21 (DE3)

[2] = target: T2, WWP2^HECT (Homo sapiens, UniProt O00308); experiment: Naive Library Presenter Screening (phage, NGS), WWP2^HECT; assay type: binding; details: for interaction data at Target Concentration 10: WWP2 target concentration 10 nM; for interaction data at Target Concentration 30: WWP2 target concentration 30 nM; for interaction data at Target Concentration 100: WWP2 target concentration 100 nM; for interaction data at Target Concentration 300: WWP2 target concentration 300 nM; for interaction data at Target Concentration 1000: WWP2 target concentration 1000 nM
T2 construct: GST-TEV (N, cleaved yes); made in house; host or cells: Escherichia coli BL21 (DE3)
T2 sequence (O00308 492-865): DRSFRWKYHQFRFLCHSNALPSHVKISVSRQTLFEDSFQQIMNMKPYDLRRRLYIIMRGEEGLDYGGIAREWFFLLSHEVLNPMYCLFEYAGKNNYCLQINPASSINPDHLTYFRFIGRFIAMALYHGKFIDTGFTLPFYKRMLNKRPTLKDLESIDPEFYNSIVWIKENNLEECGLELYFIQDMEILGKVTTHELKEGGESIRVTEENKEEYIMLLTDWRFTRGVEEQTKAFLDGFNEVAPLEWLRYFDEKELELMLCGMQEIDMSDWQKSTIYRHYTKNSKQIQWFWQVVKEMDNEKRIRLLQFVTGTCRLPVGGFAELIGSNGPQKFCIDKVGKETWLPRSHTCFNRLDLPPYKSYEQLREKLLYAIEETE

Row | interaction data at Target Concentration 10 [2] | interaction data at Target Concentration 30 [2] | interaction data at Target Concentration 100 [2] | interaction data at Target Concentration 300 [2] | interaction data at Target Concentration 1000 ([2]; first column) | interaction data at Target Concentration 1000 ([2]; second column) | Sequence | interaction data at Target Concentration 10 [1] | interaction data at Target Concentration 30 [1] | interaction data at Target Concentration 100 [1] | interaction data at Target Concentration 300 [1] | interaction data at Target Concentration 1000 ([1]; first column) | interaction data at Target Concentration 1000 ([1]; second column)
1 | – | – | – | – | – | – | DPATETCAQAAVLCHSD (linker 7-14 via Phenylene(1,4-NHCOCH2)2 (inferred); not fully specified (C-terminus)) | 1 | 12 | 3 | 200 | 519 | 449
2 | – | – | – | – | – | – | DPALQTCMDAAQVCRLL (linker 7-14 via Phenylene(1,4-NHCOCH2)2) | 0 | 0 | 107 | 163 | – | 197
3 | – | – | – | – | – | – | DPAIFDCEFAAHVCSVL (linker 7-14 via Phenylene(1,4-NHCOCH2)2) | 0 | 26 | – | 436 | 275 | 618
4 | – | – | – | – | – | – | DPALASCQQAAWVCEVL (linker 7-14 via Phenylene(1,4-NHCOCH2)2) | 0 | 43 | 173 | 291 | – | 309
5 | – | – | – | – | – | – | DPAIMSCMYAAEVCRVL (linker 7-14 via Phenylene(1,4-NHCOCH2)2) | 0 | 1 | 147 | 109 | 183 | 253
6 | – | – | – | – | – | – | DPATHVCTTAA VMCHQT (DPATHVCTTAAVMCHQT; not fully specified; cysteine pairing not given here) | 0 | 0 | 6 | 327 | 275 | 365
7 | – | – | – | – | – | – | DPARWACTEAAHVCDTL (linker 7-14 via Phenylene(1,4-NHCOCH2)2) | 0 | 2 | – | 182 | 183 | 281
8 | – | – | – | – | – | – | DPAHTACNQAARVCHTL (linker 7-14 via Phenylene(1,4-NHCOCH2)2) | 1 | 4 | 104 | 200 | – | 253
9 | – | – | – | – | – | – | DPAQLSCTVAAHVCHST (linker 7-14 via Phenylene(1,4-NHCOCH2)2; not fully specified (C-terminus)) | 0 | 25 | 0 | 254 | 275 | 140
10 | – | – | – | – | – | – | DPAWMACAWAANLCHSS (linker 7-14 via Phenylene(1,4-NHCOCH2)2) | 0 | 18 | 14 | 91 | 244 | 253
11 | – | – | – | – | – | – | DPAWVSCVRAANLCHVS (linker 7-14 via Phenylene(1,4-NHCOCH2)2 (inferred); not fully specified (C-terminus)) | 33 | 1 | 0 | 0 | 183 | 140
12 | – | – | – | – | – | – | DPAHQTCAFAAVLCHQN (linker 7-14 via Phenylene(1,4-NHCOCH2)2) | 0 | 0 | 32 | 18 | – | 309
13 | 2 | 67 | 51 | 125 | 120 | 127 | DPAQNMCQAAADVCMFF (DPAQNMCQAAADVCMFF-NH2; linker 7-14 via Phenylene(1,4-NHCOCH2)2; N-terminus assumed; SMILES CSCC[C@H](NC(=O)[C@H](CC(N)=O)NC(=O)[C@H](CCC(N)=O)NC(=O)[C@H](C)NC(=O)[C@@H]1CCCN1C(=O)[C@@H](N)CC(=O)O)C(=O)N[C@H]1CSCC(=O)Nc2ccc(cc2)NC(=O)CSC[C@@H](C(=O)N[C@@H](CCSC)C(=O)N[C@@H](Cc2ccccc2)C(=O)N[C@@H](Cc2ccccc2)C(N)=O)NC(=O)[C@H](C(C)C)NC(=O)[C@H](CC(=O)O)NC(=O)[C@H](C)NC(=O)[C@H](C)NC(=O)[C@H](C)NC(=O)[C@H](CCC(N)=O)NC1=O) | – | – | – | – | – | –
14 | 0 | 0 | 2 | 23 | 35 | 66 | DPATWDCQQAAHHCWVL (linker 7-14 via Phenylene(1,4-NHCOCH2)2 (inferred); not fully specified (C-terminus)) | – | – | – | – | – | –
15 | 0 | 0 | 0 | 28 | 33 | 15 | DPAVWDCRYAAWDCYTN (linker 7-14 via Phenylene(1,4-NHCOCH2)2 (inferred); not fully specified (C-terminus)) | – | – | – | – | – | –
16 | 1 | 24 | 17 | 18 | 28 | 32 | DPALWECMTAADWCMFM (linker 7-14 via Phenylene(1,4-NHCOCH2)2; not fully specified (C-terminus)) | – | – | – | – | – | –
17 | 165 | 532 | 522 | 555 | 466 | 573 | DPARVDCLVAADMCHMF (DPARVDCLVAADMCHMF-NH2; linker 7-14 via Phenylene(1,4-NHCOCH2)2; N-terminus assumed; SMILES CSCC[C@H](NC(=O)[C@H](Cc1c[nH]cn1)NC(=O)[C@@H]1CSCC(=O)Nc2ccc(cc2)NC(=O)CSC[C@H](NC(=O)[C@H](CC(=O)O)NC(=O)[C@@H](NC(=O)[C@H](CCCNC(=N)N)NC(=O)[C@H](C)NC(=O)[C@@H]2CCCN2C(=O)[C@@H](N)CC(=O)O)C(C)C)C(=O)N[C@@H](CC(C)C)C(=O)N[C@@H](C(C)C)C(=O)N[C@@H](C)C(=O)N[C@@H](C)C(=O)N[C@@H](CC(=O)O)C(=O)N[C@@H](CCSC)C(=O)N1)C(=O)N[C@@H](Cc1ccccc1)C(N)=O) | – | – | – | – | – | –
